Key:
Taq polymerase = molecular target: T1, Taq polymerase (Thermus aquaticus, UniProt P19821, A391P/R392G/V390W); experiment: Polymerase activity in the presence of a polymerase inhibitor (amplification reaction at 45° C.); format: biochemical
T1 construct: made in house; host or cells: E. coli Rosetta 2 (DE3), plasmid pET21-Biotin-His6-ABP-Taq
Experimental: The assay was fixed at a final volume of 100 μl, and contained reaction components at the following final concentrations: oligonucleotide of SEQ ID NO: 8; 40 μM, dNTPs; 200 μM (each), APS; 1.6 mM, ATP sulfurylase; 0.12 Units, D-Luciferin; 0.3 mM, and Luciferase; 3 μg.
FIG. 9 illustrates a luminescence assay that indicates the Taq polymerase activity. As shown in FIG. 9A and FIG. 9B, a time course is initially indicated with a lag phase, normally less than 2 minutes, followed by a linear increase in luminescence. The rate of luminescence increase (slope) defines the Taq polymerase activity.
Hot Start Taq DNA polymerase was obtained from New England BioLabs (NEB). Taq polymerase from New England BioLabs was tested as a control. An amplification reaction was performed to determine the activity of Bio-HIS-ABS-Taq in the presence of human serum albumin (HSA) at 45° C. and to compare the activity of Bio-HIS-ABS-Taq in the presence of HSA with Hot Start Taq polymerase (NEB). The ratio of Bio-HIS-ABS-Taq to HSA is 1:1. Table 2 illustrates the activity of Bio-HIS-ABS-Taq in the presence of HSA compared to the activity of Hot Start Taq Polymerase from NEB.

[1] = molecular target: human serum albumin (HSA), P02768
[2] = Protamine-based method optimization: Qubit protein remaining; conditions: protamine beads
Experimental: For protamine attachment, NHS-activated Sepharose beads were utilized and coupling was performed in 0.1 M HEPES buffer (pH 7.0), with a protein to bead ratio of 25 mg of the protein to 1 ml bead suspension (0.5 ml packed), pre-washed with 1 mM HCl. Attachment of protamine to beads was completed by leaving the suspension on rotation overnight at 4° C., followed by washing with 0.1 M Tris (pH 8.5), to block any remaining NHS groups on beads. The procedure ensured overall coverage of Sepharose beads with the highly charged protamine molecules.
DNA contaminant removal was accomplished using 15 μl of packed protamine-Sepharose beads per mg Taq polymerase, in 0.05 M sodium acetate, 0.2 M potassium chloride, pH 5.0. After leaving on rotation for 10 minutes, the suspension was centrifuged for 3 minutes at 1000×g, and the supernatant containing the enzyme was tested for DNA contamination, using a Qubit quantitation system.
pH Optimization: pH at 4.4, 4.75, 5.5, 6, and 7.7 were tested. Buffers used for adjusting the pH included acetate pH 4, acetate pH 5, MES pH 6, HEPES pH 7, and Tris pH 8. In each tube, 4 ul of the protamine bead slurry (protamine from Sigma-Aldrich) was used, 10 ul of buffer, 7 ul of 3.5 M KCl, and 140 ul of the buffer exchanged Bio-HIS-ABS-Taq polymerase. The initial concentrations of the polymerase and DNA contaminant were 0.478 mg/mL and 65.3 ng/mL, respectively.
Table 4 illustrates the final concentrations of the Bio-HIS-ABS-Taq polymerase and DNA contaminant from a second set of experiment. The initial concentrations of the polymerase and DNA contaminant were 0.55 mg/mL and 65.3 ng/mL, respectively.
Table 5 illustrates the final concentrations of the Bio-HIS-ABS-Taq polymerase and DNA contaminant from an experiment that modulates the salt concentration. The initial concentrations of the polymerase and DNA contaminant were 0.487 mg/mL and 82.9 ng/mL, respectively.

[3] = relative to Control #2 (Taq, NEB)
[4] = KCl 0.145 M, initial polymerase 0.487 mg/mL
[5] = KCl 0.194 M, initial polymerase 0.487 mg/mL
[6] = KCl 0.242 M, initial polymerase 0.487 mg/mL
[7] = KCl 0.291 M, initial polymerase 0.487 mg/mL
[8] = KCl 0.340 M, initial polymerase 0.487 mg/mL
[9] = pH 4.4, initial polymerase 0.478 mg/mL
[10] = pH 4.75, initial polymerase 0.478 mg/mL
[11] = pH 5.5, initial polymerase 0.478 mg/mL
[12] = pH 6, initial polymerase 0.478 mg/mL
[13] = pH 7.7, initial polymerase 0.478 mg/mL
[14] = second set, pH 4.03, initial polymerase 0.55 mg/mL
[15] = second set, pH 4.22, initial polymerase 0.55 mg/mL
[16] = second set, pH 4.40, initial polymerase 0.55 mg/mL
[17] = second set, pH 4.80, initial polymerase 0.55 mg/mL

Control #1 (Taq, NEB): Taq polymerase from New England BioLabs, tested as a control
% activity (Taq polymerase; Bio-HIS-ABS-Taq to HSA 1:1, relative to Control #1 (Taq, NEB)): 100%
% activity (Taq polymerase; [3]): 100%

Hot Start (NEB): Hot Start Taq DNA polymerase obtained from New England BioLabs (NEB)
% activity (Taq polymerase; [3]): 91%

B1: Bio-HIS-ABS-Taq polymerase (protein)
chain: MASSLRQILDSQKIEWRSNAGGASHHHHHHGGASLAEAKVLANRELDKYGVSDYHKNLINNAKTVEGVKDLQAQVVESAKKARISEATDGLSDFLKSQTPAEDTVKSIELAEAKVLANRELDKYGVSDYYKNLINNAKTVEGVKALIDEILAALPGTFAHYMDPNLEALFQGPNSLPLFEPKGRVLLVDGHHLAYRTFHALKGLTTSRGEPVQAVYGFAKSLLKALKEDGDAVIVVFDAKAPSFRHEAYGGYKAGRAPTPEDFPRQLALIKELVDLLGLARLEVPGYEADDVLASLAKKAEKEGYEVRILTADKDLYQLLSDRIHVLHPEGYLITPAWLWEKYGLRPDQWADYRALTGDESDNLPGVKGIGEKTARKLLEEWGSLEALLKNLDRLKPAIREKILAHMDDLKLSWDLAKVRTDLPLEVDFAKRREPDRERLRAFLERLEFGSLLHEFGLLESPKALEEAPWPPPEGAFVGFVLSRKEPMWADLLALAAARGGRVHRAPEPYKALRDLKEARGLLAKDLSVLALREGLGLPPGDDPMLLAYLLDPSNTTPEGWPGRYGGEWTEEAGERAALSERLFANLWGRLEGEERLLWLYREVERPLSAVLAHMEATGVRLDVAYLRALSLEVAEEIARLEAEVFRLAGHPFNLNSRDQLERVLFDELGLPAIGKTEKTGKRSTSAAVLEALREAHPIVEKILQYRELTKLKSTYIDPLPDLIHPRTGRLHTRFNQTATATGRLSSSDPNLQNIPVRTPLGQRIRRAFIAEEGWLLVALDYSQIELRVLAHLSGDENLIRVFQEGRDIHTETASWMFGVPREAVDPLMRRAAKTINFGVLYGMSAHRLSQELAIPYEEAQAFIERYFQSFPKVRAWIEKTLEEGRRRGYVETLFGRRRYVPDLEARVKSVREAAERMAFNMPVQGTAADLMKLAMVKLFPRLEEMGARMLLQVHDELVLEAPKERAEAVARLAKEVMEGVYPLAVPLEVEVGIGEDWLSAKE
% activity [1]: 73%

B2: Bio-HIS-ABS-Taq polymerase: Taq polymerase with N-terminal biotin-tag, His6 and albumin-binding protein fusion (SEQ ID NO: 1), expressed in E. coli (protein)
chain: MASSLRQILDSQKIEWRSNAGGASHHHHHHGGASLAEAKVLANRELDKYGVSDYHKNLINNAKTVEGVKDLQAQVVESAKKARISEATDGLSDFLKSQTPAEDTVKSIELAEAKVLANRELDKYGVSDYYKNLINNAKTVEGVKALIDEILAALPGTFAHYMDPNLEALFQGPNSLPLFEPKGRVLLVDGHHLAYRTFHALKGLTTSRGEPVQAVYGFAKSLLKALKEDGDAVIVVFDAKAPSFRHEAYGGYKAGRAPTPEDFPRQLALIKELVDLLGLARLEVPGYEADDVLASLAKKAEKEGYEVRILTADKDLYQLLSDRIHVLHPEGYLITPAWLWEKYGLRPDQWADYRALTGDESDNLPGVKGIGEKTARKLLEEWGSLEALLKNLDRLKPAIREKILAHMDDLKLSWDLAKVRTDLPLEVDFAKRREPDRERLRAFLERLEFGSLLHEFGLLESPKALEEAPWPPPEGAFVGFVLSRKEPMWADLLALAAARGGRVHRAPEPYKALRDLKEARGLLAKDLSVLALREGLGLPPGDDPMLLAYLLDPSNTTPEGWPGRYGGEWTEEAGERAALSERLFANLWGRLEGEERLLWLYREVERPLSAVLAHMEATGVRLDVAYLRALSLEVAEEIARLEAEVFRLAGHPFNLNSRDQLERVLFDELGLPAIGKTEKTGKRSTSAAVLEALREAHPIVEKILQYRELTKLKSTYIDPLPDLIHPRTGRLHTRFNQTATATGRLSSSDPNLQNIPVRTPLGQRIRRAFIAEEGWLLVALDYSQIELRVLAHLSGDENLIRVFQEGRDIHTETASWMFGVPREAVDPLMRRAAKTINFGVLYGMSAHRLSQELAIPYEEAQAFIERYFQSFPKVRAWIEKTLEEGRRRGYVETLFGRRRYVPDLEARVKSVREAAERMAFNMPVQGTAADLMKLAMVKLFPRLEEMGARMLLQVHDELVLEAPKERAEAVARLAKEVMEGVYPLAVPLEVEVGIGEDWLSAKE
modifications: N-terminal biotin; Synthetic polypeptide Bio-HIS-ABS-Taq polymerase
% protein remaining (comp to buffer exch) [2, 4]: 105%
Qubit protein remaining [2, 4]: 0.513 mg/mL
% protein remaining (comp to buffer exch) [2, 5]: 101%
Qubit protein remaining [2, 5]: 0.495 mg/mL
% protein remaining (comp to buffer exch) [2, 6]: 99.9%
Qubit protein remaining [2, 6]: 0.487 mg/mL
% protein remaining (comp to buffer exch) [2, 7]: 70%
Qubit protein remaining [2, 7]: 0.339 mg/mL
% protein remaining (comp to buffer exch) [2, 8]: 55%
Qubit protein remaining [2, 8]: 0.271 mg/mL
% protein remaining (comp to buffer exch) [2, 9]: 97%
Qubit protein remaining [2, 9]: 0.462 mg/mL
% protein remaining (comp to buffer exch) [2, 10]: 60%
Qubit protein remaining [2, 10]: 0.288 mg/mL
% protein remaining (comp to buffer exch) [2, 11]: 61%
Qubit protein remaining [2, 11]: 0.292 mg/mL
% protein remaining (comp to buffer exch) [2, 12]: 64%
Qubit protein remaining [2, 12]: 0.308 mg/mL
% protein remaining (comp to buffer exch) [2, 13]: 75%
Qubit protein remaining [2, 13]: 0.360 mg/mL
% protein remaining (comp to buffer exch) [2, 14]: 94%
Qubit protein remaining [2, 14]: 0.459 mg/mL
% protein remaining (comp to buffer exch) [2, 15]: 95%
Qubit protein remaining [2, 15]: 0.486 mg/mL
% protein remaining (comp to buffer exch) [2, 16]: 96%
Qubit protein remaining [2, 16]: 0.505 mg/mL
% protein remaining (comp to buffer exch) [2, 17]: 93%
Qubit protein remaining [2, 17]: 0.497 mg/mL

Source: US20170081647A1, “GENETIC DETECTION PLATFORM” (Pharmozyme, Inc., priority 2014, published 2017)
